Km of AspH for the peptide substrate, steady-state kinetics of hydroxylation by SPE-MS (0.1 μM His6-AspH315–758, 50 mM Hepes, pH 7.5, 20 °C) data for 2 substances are collected here from paper PMC9293771.

The target in this assay is N-terminally truncated N-terminally His6-tagged human aspartate/asparagine-β-hydroxylase (His6-AspH315–758) (human) (UniProt Q12797).
Sequence of UniProt Q12797 (Q12797 315-758): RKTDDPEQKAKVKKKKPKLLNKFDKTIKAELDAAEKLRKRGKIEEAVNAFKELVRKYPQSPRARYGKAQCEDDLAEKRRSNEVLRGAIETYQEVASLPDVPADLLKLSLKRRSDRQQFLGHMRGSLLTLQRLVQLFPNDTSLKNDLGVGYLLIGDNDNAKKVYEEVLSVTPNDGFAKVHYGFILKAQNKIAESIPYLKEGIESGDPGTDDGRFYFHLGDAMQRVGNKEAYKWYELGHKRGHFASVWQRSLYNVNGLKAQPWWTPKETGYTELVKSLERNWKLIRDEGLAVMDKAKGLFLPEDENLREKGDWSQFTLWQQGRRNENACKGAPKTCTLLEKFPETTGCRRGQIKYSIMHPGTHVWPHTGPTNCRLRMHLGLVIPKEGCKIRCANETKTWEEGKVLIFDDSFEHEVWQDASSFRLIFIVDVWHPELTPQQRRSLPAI

Regarding “hHMCN1-CP5164–5182, thioether-bridged cyclic peptide derived from EGFD2 of human hemicentin-1 (from UniProt Q96RW7 5164-5182)”, the Km of AspH for the peptide substrate, steady-state kinetics of hydroxylation by SPE-MS (0.1 μM His6-AspH315–758, 50 mM Hepes, pH 7.5, 20 °C) stood at 7.9 μM.

For “hLYPD6B-CP65–83, thioether-bridged cyclic peptide derived from the LU domain of human LYPD6B (from UniProt Q8NI32 65-83)”, the Km of AspH for the peptide substrate, steady-state kinetics of hydroxylation by SPE-MS (0.1 μM His6-AspH315–758, 50 mM Hepes, pH 7.5, 20 °C) is 47 μM.
